From patent US20230265199A1 come the findings set out here.

Sequences and labels used below:
B1: Trap Z (Human, "full" extracellular domain NRP1-His, VEGF165-Low, E319K/D320K mutations) (receptor)
chain: FRNDKCGDTIKIESPGYLTSPGYPHSYHPSEKCEWLIQAPDPYQRIMINFNPHFDLEDRDCKYDYVEVFDGENENGHFRGKFCGKIAPPPVVSSGPFLFIKFVSDYETHGAGFSIRYELFKRGPECSQNYTTPSGVIKSPGFPEKYPNSLECTYIVFAPKMSEIILEFESFDLEPDSNPPGGMFCRYDRLEIWDGFPDVGPHIGRYCGQKTPGRIRSSSGILSMVFYTDSAIAKEGFSANYSVLQSSVSEDFKCMEALGMESGEIHSDQITASSQYSTNWSAERSRLNYPENGWTPGKKSYREWIQVDLGLLRFVTAVGTQGAISKETKKKYYVKTYKIDVSSNGEDWITIKEGNKPVLFQGNTNPTDVVVAVFPKPLITRFVRIKPATWETGISMRFEVYGCKITDYPCSGMLGMVSGLISDSQITSSNQGDRNWMPENIRLVTSRSGWALPPAPHSYINEWLQIDLGEEKIVRGIIIQGGKHRENKVFMRKFKIGYSNNGSDWKMIMDDSKRKAKSFEGNNNYDTPELRTFPALSTRFIRIYPERATHGGLGLRMELLGCEVEAPTAGPTTPNGNLVDECDDDQANCHSGTGDDFQLTGGTTVLATEKPTVIDSTIQSEFPTYGFNCEFGWGSHKTFCHWEHDNHVQLKWSVLTSKTGPIQDHTGDGNFIYSQADENQKGKVARLVSPVVYSQNSAHCMTFWYHMSGSHVGTLRVKLRYQKPEEYDQLVWMAIGHQGDHWKEGRVLLHKSLKLYQVIFEGEIGKGNLGGIAVDDISINNHISQEDCAKPADLDKKNPEIKIDETGSTPGYEGEGEGDKNISRKPGNVLKTLDPRSGSKENLYFQGHHHHHH
B2: Trap AC (Human, "full" extracellular domain NRP1-His-VEGF-low, D320K mutation) (receptor)
chain: FRNDKCGDTIKIESPGYLTSPGYPHSYHPSEKCEWLIQAPDPYQRIMINFNPHFDLEDRDCKYDYVEVFDGENENGHFRGKFCGKIAPPPVVSSGPFLFIKFVSDYETHGAGFSIRYELFKRGPECSQNYTTPSGVIKSPGFPEKYPNSLECTYIVFAPKMSEIILEFESFDLEPDSNPPGGMFCRYDRLEIWDGFPDVGPHIGRYCGQKTPGRIRSSSGILSMVFYTDSAIAKEGFSANYSVLQSSVSEDFKCMEALGMESGEIHSDQITASSQYSTNWSAERSRLNYPENGWTPGEKSYREWIQVDLGLLRFVTAVGTQGAISKETKKKYYVKTYKIDVSSNGEDWITIKEGNKPVLFQGNTNPTDVVVAVFPKPLITRFVRIKPATWETGISMRFEVYGCKITDYPCSGMLGMVSGLISDSQITSSNQGDRNWMPENIRLVTSRSGWALPPAPHSYINEWLQIDLGEEKIVRGIIIQGGKHRENKVFMRKFKIGYSNNGSDWKMIMDDSKRKAKSFEGNNNYDTPELRTFPALSTRFIRIYPERATHGGLGLRMELLGCEVEAPTAGPTTPNGNLVDECDDDQANCHSGTGDDFQLTGGTTVLATEKPTVIDSTIQSEFPTYGFNCEFGWGSHKTFCHWEHDNHVQLKWSVLTSKTGPIQDHTGDGNFIYSQADENQKGKVARLVSPVVYSQNSAHCMTFWYHMSGSHVGTLRVKLRYQKPEEYDQLVWMAIGHQGDHWKEGRVLLHKSLKLYQVIFEGEIGKGNLGGIAVDDISINNHISQEDCAKPADLDKKNPEIKIDETGSTPGYEGEGEGDKNISRKPGNVLKTLDPRSGSKENLYFQGHHHHHH
B3: Trap R (Human, NRP1-His-Δc-VEGF low) (receptor)
chain: FRNDKCGDTIKIESPGYLTSPGYPHSYHPSEKCEWLIQAPDPYQRIMINFNPHFDLEDRDCKYDYVEVFDGENENGHFRGKFCGKIAPPPVVSSGPFLFIKFVSDYETHGAGFSIRYELFKRGPECSQNYTTPSGVIKSPGFPEKYPNSLECTYIVFAPKMSEIILEFESFDLEPDSNPPGGMFCRYDRLEIWDGFPDVGPHIGRYCGQKTPGRIRSSSGILSMVFYTDSAIAKEGFSANYSVLQSSVSEDFKCMEALGMESGEIHSDQITASSQASTNWSAERSRLNYPENGWTPGEDSYREWIQVDLGLLRFVTAVGTQGAISKETKKKYYVKTYKIDVSSNGEDWITIKEGNKPVLFQGNTNPTDVVVAVFPKPLITRFVRIKPATWETGISMRFEVYGCKITDYPCSGMLGMVSGLISDSQITSSNQGDRNWMPENIRLVTSRSGWALPPAPHSYINEWLQIDLGEEKIVRGIIIQGGKHRENKVFMRKFKIGYSNNGSDWKMIMDDSKRKAKSFEGNNNYDTPELRTFPALSTRFIRIYPERATHGGLGLRMELLGCEVEAPTAGPTTPNGNLVDECDDDQANCHSGTGDDFQLTGGTTVLATEKPTVIDSTIQSEFPTYGFNCEFGWGSHKTFCHWEHDNHVQLKWSVLTSKTGPIQDHTGDGNFIYSQADENQKGKVARLVSPVVYSQNSAHCMTFWYHMSGSHVGTLRVKLRYQKPEEYDQLVWMAIGHQGDHWKEGRVLLHKSLKLYQVIFEGEIGKGNLGGIAVDDISINNHISQEDCAKPADLDKKNPEIKIDETGSTPGYEGEGEGDKNISRKPGNVLKTLDPRSGSKENLYFQGHHHHHH
B4: Trap M (Human, NRP1-His-Δb2c-short) (receptor)
chain: FRNDKCGDTIKIESPGYLTSPGYPHSYHPSEKCEWLIQAPDPYQRIMINFNPHFDLEDRDCKYDYVEVFDGENENGHFRGKFCGKIAPPPVVSSGPFLFIKFVSDYETHGAGFSIRYELFKRGPECSQNYTTPSGVIKSPGFPEKYPNSLECTYIVFAPKMSEIILEFESFDLEPDSNPPGGMFCRYDRLEIWDGFPDVGPHIGRYCGQKTPGRIRSSSGILSMVFYTDSAIAKEGFSANYSVLQSSVSEDFKCMEALGMESGEIHSDQITASSQYSTNWSAERSRLNYPENGWTPGEDSYREWIQVDLGLLRFVTAVGTQGAISKETKKKYYVKTYKIDVSSNGEDWITIKEGNKPVLFQGNTNPTDVVVAVFPKPLITRFVRIKPATWETGISMRFEVYGCRSGSKENLYFQGHHHHHH

The assay addresses Recombinant human SEMA3A Fc chimera (R&D Systems) (human) (UniProt Q14563). Nature of the assay: plate saturation binding; trap coated, SEMA3A-FC titrated, HRP anti-human IgG chemiluminescence, non-linear fit.
With “Trap G (Human, "full" extracellular domain NRP1-His) (from UniProt O14786 22-856) (receptor)”, the Kd was 0.8 nM. In the case of “Trap O (Human, NRP1-His-Δc-short) (from UniProt O14786 22-583) (receptor)” it was 1.05 nM; in that of B1, 4.44 nM; in that of B2, 4 nM. In the case of B3 it was 6.15 nM. For the molecule B4, the dissociation constant Kd was determined as 0.95 nM.
